Data on four substances can be found in article doi:10.1101/2022.03.24.485560.

As usually defined, the Kd is the concentration at which binding is half-saturated. A higher Kd goes with a looser complex.

For this assay, the target named is TRIM7 PRY-SPRY domain (338-511 aa) (human) (UniProt Q9C029). In words: ITC. Background: Isothermal titration calorimetry measures the heat released or taken up as one component is titrated into another.
The substance C-terminal peptide fragment of RACO-1 yielded a Kd of 10 µM.
Regarding “C-terminal peptide fragment of glycogenin-1 (GN1)”, the Kd stood at 8 µM.
Consider “CVB3 2C (117-329 aa) (domain or fragment)”, for which the Kd turned out to be 6 µM.
Substance CVB3 2C-derived peptide (319-329 aa) yielded a Kd of 3 µM.
